Article PMC3977576 (Biochemistry, 2014)

Target: the molecule itself
Assay: SEC-MALS

B1: IKK2EE(11–669) (domain or fragment)
chain: TCGAWEMKERLGTGGFGNVIRWHNQETGEQIAIKQCRQELSPRNRERWCLEIQIMRRLTHPNVVAARDVPEGMQNLAPNDLPLLAMEYCQGGDLRKYLNQFENCCGLREGAILTLLSDIASALRYLHENRIIHRDLKPENIVLQQGEQRLIHKIIDLGYAKELDQGELCTEFVGTLQYLAPELLEQQKYTVTVDYWSFGTLAFECITGFRPFLPNWQPVQWHSKVRQKSEVDIVVSEDLNGTVKFSSSLPYPNNLNSVLAERLEKWLQLMLMWHPRQRGTDPTYGPNGCFKALDDILNLKLVHILNMVTGTIHTYPVTEDESLQSLKARIQQDTGIPEEDQELLQEAGLALIPDKPATQCISDGKLNEGHTLDMDLVFLFDNSKITYETQISPRPQPESVSCILQEPKRNLAFFQLRKVWGQVWHSIQTLKEDCNRLQQGQRAAMMNLLRNNSCLSKMKNSMASMSQQLKAKLDFFKTSIQIDLEKYSEQTEFGITSDKLLLAWREMEQAVELCGRENEVKLLVERMMALQTDIVDLQRSPMGRKQGGTLDDLEEQARELYRRLREKPRDQRTEGDSQEMVRLLLQAIQSFEKKVRVIYTQLSKTVVCKQKALELLPKVEEVVSLMNEDEKTVVRLQEKRQKELWNLLKIACSKVRGPV
- stoichiometry N: 2
